Test in all cases: MYTH (membrane yeast two-hybrid) quantitative β-Gal activity assay
Assay [1] has as its target TbATPc prey for MYTH (T. brucei ATP synthase subunit c without MTS, NubG-HA; identical to TcATPc). The settings on record: yeast strain NMY51, n = 3, 6 colonies for each independent experiment, read off a plot.
Assay [2] deals with TbMCU bait for MYTH (without MTS, SUC signal sequence, Cub-LexA-VP16). The note with it: yeast strain NMY51; n = 3; 6 colonies for each independent experiment; parent: est. 140; read off a plot.
The target of assay [3] is T. cruzi MCU (TcMCU) bait for MYTH (Cub-LexA-VP16). The settings on record: yeast strain NMY51; n = 3; 6 colonies for each independent experiment; parent: est. 180; read off a plot.
In assay [4] the target is TbMCU bait for MYTH (without MTS, SUC signal sequence, Cub-LexA-VP16). The settings on record: yeast strain NMY51; n = 3; 6 colonies for each independent experiment; parent: est. 140; read off a plot. The source holds these as a separate data set.
Assay [5] has as its target TbMCUc bait for MYTH (Cub-LexA-VP16). The note with it: yeast strain NMY51; n = 3; 6 colonies for each independent experiment; parent: est. 140; read off a plot.
The target in assay [6] is TbMCUd bait for MYTH (Cub-LexA-VP16). The note with it: yeast strain NMY51; n = 3; 6 colonies for each independent experiment; parent: est. 180; read off a plot.
Assay [7] concerns the target TbATPc prey for MYTH (T. brucei ATP synthase subunit c without MTS, NubG-HA; identical to TcATPc). The settings on record: yeast strain NMY51; n = 3; 6 colonies for each independent experiment; parent: est. 150; read off a plot.

For “T. cruzi MCU (TcMCU) bait for MYTH (Cub-LexA-VP16)”, in assay [1] (parent: est. 180), the response was determined as 32 units.

On to “T. cruzi MCU (TcMCU) bait for MYTH (Cub-LexA-VP16) Q208A; I211P; I212P; F217A”, for which the response in assay [1] (parent: est. 180) was 34 units.

With “TbATPc prey for MYTH (T. brucei ATP synthase subunit c without MTS, NubG-HA; identical to TcATPc) F98L; E102A; F107L; F113L”, the response in assay [2] was 88 units. “TbATPc prey for MYTH (T. brucei ATP synthase subunit c without MTS, NubG-HA; identical to TcATPc) F98L; F107L; F113L”: in assay [2], the response is 130 units. Still for that read-out and setting: the result for “TbATPc prey for MYTH (T. brucei ATP synthase subunit c without MTS, NubG-HA; identical to TcATPc) G64A; G66A; G68A; G70A” reads 69 units.

On to “TbATPc prey for MYTH (T. brucei ATP synthase subunit c without MTS, NubG-HA; identical to TcATPc) G64L; G66L; G68L; G70L”, for which the response was 45 units in assay [2]; 58 units in assay [3]; 44 units in assay [4]; 43 units in assay [5]; 58 units in assay [6]. As for “TbMCU bait for MYTH (without MTS, SUC signal sequence, Cub-LexA-VP16)”, the response in assay [1] (parent: est. 140) worked out at 26 units. Take “TbMCU bait for MYTH (without MTS, SUC signal sequence, Cub-LexA-VP16) Q213A; V216P; I217P; F222A”: the response in assay [7] was determined as 27 units; in assay [1] (parent: est. 140), 28 units. As to “TbMCU bait for MYTH (without MTS, SUC signal sequence, Cub-LexA-VP16) V216P; I217P”, the response in assay [7] was 34 units. Same read-out and setting: the value for “TbMCU bait for MYTH (without MTS, SUC signal sequence, Cub-LexA-VP16) Y235A; F236A; T241E; Y248A” was 120 units.

TbMCUc bait for MYTH (Cub-LexA-VP16): the response in assay [1] (parent: est. 140) is 29 units. Still for that read-out and setting: the value for “TbMCUc bait for MYTH (Cub-LexA-VP16) Q161A; V164P; L165P; F170A” was 30 units. For TbMCUd bait for MYTH (Cub-LexA-VP16), in assay [1] (parent: est. 180), the response worked out at 27 units. On the same count and under the same terms, the value for “TbMCUd bait for MYTH (Cub-LexA-VP16) R123A; V126P; L127P; Y132A” was 34 units.

These data come from PMC7078472.
